In PMC8782923, “A Klotho-derived peptide protects against kidney fibrosis by targeting TGF-β signaling” (Nature Communications, 2022):
Ends that are not written are not given here.

Experiments:
Conditions in all cases: both partners purified
[1] = target: T1, Recombinant TGF-β receptor 2 protein (UniProt P37173 23-166); assay: SPR; Biacore T200, 25 °C; TβR2 amine-coupled on a CM5 chip (50 µg/ml in 10 mM acetate pH 4.0); peptides in PBS injected at 60 µl/min, 180 s association, 540 s dissociation; 1:1 binding model
T1 construct: TGF-β receptor 2, recombinant, 43.4 kDa, >95% by SDS-PAGE; By its catalogue number probably a human extracellular domain with a carrier tag, biotinylated (surmise); The TβR2 of the microplate assay (10358-H08B) is called human; also called TβR2; type 2 TGF-β receptor; source: bought: Sino Biological Inc. (10358-H03H-B)

[2] = target: T2, Recombinant TGF-β receptor 2 protein (10358-H03H-B; Sino Biological Inc.) (UniProt P37173 23-166); assay: SPR; Biacore T200, 25 °C; TβR2 amine-coupled to a CM5 chip; peptides in PBS injected at 60 μl/min, 180 s injection, 540 s dissociation; 1:1 binding model
T2 construct: TGF-β receptor 2, recombinant, 43.4 kDa; also called TβR2; type 2 TGF-β receptor; source: bought: Sino Biological Inc. (>95% as determined by SDS-PAGE)

[3] = target: T3, Human TβR2 (10358-H08B; Sino Biological Inc.) (human, UniProt P37173 23-166); assay: microplate-based fluorescence direct binding assay; TβR2 (10 μg/ml) or BSA coated on a 96-well microplate; FITC-peptide at 50 μg/ml, 1 h at room temperature, washed four times, fluorescence read
T3 construct: TGF-β receptor 2, human; source: bought: Sino Biological Inc
T3 sequence (P37173 23-166): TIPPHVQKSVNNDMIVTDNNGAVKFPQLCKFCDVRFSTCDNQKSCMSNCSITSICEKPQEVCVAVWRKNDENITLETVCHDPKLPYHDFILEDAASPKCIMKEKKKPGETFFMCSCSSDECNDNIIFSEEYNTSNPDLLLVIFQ

T2 sequence (P37173 23-166): as above
T1 sequence (P37173 23-166): as above

B1: Klotho-derived peptide 1 (peptide, UniProt Q9UEF7 57-86, looked up)
peptide: FQGTFPDGFLWAVGSAAYQTEGGWQQHGKG
notes: Klotho, human, 30 amino acids from Phe57 to Gly86; 3.229 kDa; also called KP1; source: synthetic peptide (GenScript, >95% purity)
B1 gave a koff [1] of 0.000578 s⁻¹.

B2: Klotho-derived peptide 1 (KP1) (peptide, UniProt Q9UEF7 57-86, looked up)
peptide: B1 peptide
notes: Klotho, human; peptide of 30 amino acids from Phe57 to Gly86; 3.229 kDa; the results give Phe57 to Gly86; source: synthetic peptide (GenScript, >95% purity)
B2 showed a Kd [2] of 1410 nM, a koff [2] of 0.00058 s⁻¹ and a kon [2] of 408 M⁻¹ s⁻¹.

B3: FITC-labeled KP1 (peptide, UniProt Q9UEF7 57-86, looked up)
peptide: B1 peptide
modifications: also: FITC label, position not given here
notes: Klotho, human; peptide of 30 amino acids from Phe57 to Gly86; also called FITC-KP1; source: synthetic peptide, labeled with fluorescein isothiocyanate (FITC)
B3: binds [3].
